This is an account of results in PMC10011731.

The target in the assay is Taxol-stabilized microtubules (bovine brain tubulin) (bovine) (UniProt Q6B856). The assay can be described thus: TIRF microscopy of purified proteins on surface-bound microtubules (in vitro reconstitution); Taxol-stabilised biotinylated microtubules bound to NeutrAvidin coverslips; 100 nM CLASP2α-GFP or 100 nM GFP-L-TOG2-S with […] TRITC-phalloidin F-actin flowed in; imaging buffer with MRB80, Taxol, 0.2 mM ATP; 35°C; PCC after 10 min, time-lapse up to 40 min.

Turning to “His-CLASP2α-EGFP-Strep (natural protein)”, the Pearson correlation coefficient (PCC) of the CLASP2α-GFP and microtubule signals was 0.88.
